T1: Flag-3C-Mcm10-V5 (S. cerevisiae, UniProt P32354 1-571)
T1 sequence: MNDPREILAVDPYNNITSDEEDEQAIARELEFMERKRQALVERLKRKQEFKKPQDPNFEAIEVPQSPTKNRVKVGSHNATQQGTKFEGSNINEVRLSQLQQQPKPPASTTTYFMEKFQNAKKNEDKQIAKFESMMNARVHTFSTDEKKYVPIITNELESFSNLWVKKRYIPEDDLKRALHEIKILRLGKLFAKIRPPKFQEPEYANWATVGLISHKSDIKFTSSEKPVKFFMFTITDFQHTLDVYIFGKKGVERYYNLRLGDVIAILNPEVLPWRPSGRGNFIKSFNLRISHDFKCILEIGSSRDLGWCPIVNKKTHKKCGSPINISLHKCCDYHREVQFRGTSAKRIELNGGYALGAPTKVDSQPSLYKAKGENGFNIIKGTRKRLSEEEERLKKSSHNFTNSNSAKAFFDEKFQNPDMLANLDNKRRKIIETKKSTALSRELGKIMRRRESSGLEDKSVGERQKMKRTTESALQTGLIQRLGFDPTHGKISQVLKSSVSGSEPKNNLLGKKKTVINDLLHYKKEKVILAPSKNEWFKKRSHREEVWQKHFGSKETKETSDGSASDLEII

B1: MBP-Mcm2 196–299 (domain or fragment)
chain: EWITQPNVSRTIARELKSFLLEYTDETGRSVYGARIRTLGEMNSESLEVNYRHLAESKAILALFLAKCPEEMLKIFDLVAMEATELHYPDYARIHSEIHVRISD
B2: Mcm2 1–483 (C-terminally 6xHis-tagged) (domain or fragment)
chain: MSDNRRRRREEDDSDSENELPPSSPQQHFRGGMNPVSSPIGSPDMINPEGDDNEVDDVPDIDEVEEQMNEVDLMDDNMYEDYAADHNRDRYDPDQVDDREQQELSLSERRRIDAQLNERDRLLRNVAYIDDEDEEQEGAAQLDEMGLPVQRRRRRRQYEDLENSDDDLLSDMDIDPLREELTLESLSNVKANSYSEWITQPNVSRTIARELKSFLLEYTDETGRSVYGARIRTLGEMNSESLEVNYRHLAESKAILALFLAKCPEEMLKIFDLVAMEATELHYPDYARIHSEIHVRISDFPTIYSLRELRESNLSSLVRVTGVVTRRTGVFPQLKYVKFNCLKCGSILGPFFQDSNEEIRISFCTNCKSKGPFRVNGEKTVYRNYQRVTLQEAPGTVPPGRLPRHREVILLADLVDVSKPGEEVEVTGIYKNNYDGNLNAKNGFPVFATIIEANSIKRREGNTANEGEEGLDVFSWTEEEERE

Target: T1, Flag-3C-Mcm10-V5
Experiment: co-IP

binding result	Binder
binds	B1
binds	B2

From publication PMC5358725 (Genes & Development, 2017)
